# Measured values: article PMC4072508, “Genome-Wide Prediction and Validation of Peptides That Bind Human Prosurvival Bcl-2 Proteins” (PLoS Computational Biology, 2014)
# T1: Bfl-1, Q16548
# T1 chain: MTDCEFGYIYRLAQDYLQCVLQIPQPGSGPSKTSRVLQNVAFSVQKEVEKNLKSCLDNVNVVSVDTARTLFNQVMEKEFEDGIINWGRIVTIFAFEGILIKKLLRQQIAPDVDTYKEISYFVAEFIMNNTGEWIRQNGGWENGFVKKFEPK
# T2: Bcl-w, Q92843
# T2 chain: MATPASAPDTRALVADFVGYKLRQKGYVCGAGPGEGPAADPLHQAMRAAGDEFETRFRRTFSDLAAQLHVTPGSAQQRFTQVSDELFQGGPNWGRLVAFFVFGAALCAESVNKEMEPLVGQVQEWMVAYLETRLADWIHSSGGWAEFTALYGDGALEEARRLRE
# T3: Mcl-1, Q07820
# T3 chain: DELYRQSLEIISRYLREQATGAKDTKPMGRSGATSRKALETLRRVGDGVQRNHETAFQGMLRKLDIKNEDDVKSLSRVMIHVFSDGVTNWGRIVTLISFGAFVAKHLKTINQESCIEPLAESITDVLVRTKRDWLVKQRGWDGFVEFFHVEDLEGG
# Molecular target: T1, Bfl-1, Q16548
# Experiment: peptide SPOT array, c-Myc-tagged receptor at 1 uM or 100 nM, anti-c-Myc-Cy3
row,Binder,SPOT signal as a fraction of Bim BH3's signal on the same receptor and array
1,ASEASLFEEALEKYGKDFNDIRQDFL [MTA3],0.01
2,FDHMVPLVEEINRLADELNPLNASQE [C7orf26],0.01
3,DFMGRTFAKPLVKMADEAYCPPRFPP [OTOF],0.1
4,CQGDTVISECLQRFADSLQEVVNYHM [ACAP3],0.11
5,EQKLKQHVENLNQVAEKLEEKHSQIT [CCDC68],0.01
6,SSTMGQVGRQLAIIGDDINRRYDSEF [BAK1],0.4
7,RAGELDRARELMRIGKRFGAVLEALE [CC2D1B],0.16
8,FQQTISCPEGLRLVGSEVGDRTLPGW [IRF3],0.02
9,EKNLPKMAEALAHGADVNWANSEENK [ACAP2],0.01
10,YNLKSPAVKRLMKEAAELKDPTDHYH [UBE2J1],0.13
11,ASGNKEMIEALKQYAMDYSNKALEKG [IFIT3],0.04

# Molecular target: T2, Bcl-w, Q92843
# Experiment: as above
row,Binder,SPOT signal as a fraction of Bim BH3's signal on the same receptor and array
1,ASEASLFEEALEKYGKDFNDIRQDFL [MTA3],0.02
2,FDHMVPLVEEINRLADELNPLNASQE [C7orf26],0.02
3,DFMGRTFAKPLVKMADEAYCPPRFPP [OTOF],0.14
4,CQGDTVISECLQRFADSLQEVVNYHM [ACAP3],0.02
5,EQKLKQHVENLNQVAEKLEEKHSQIT [CCDC68],0.02
6,SSTMGQVGRQLAIIGDDINRRYDSEF [BAK1],0.72
7,RAGELDRARELMRIGKRFGAVLEALE [CC2D1B],0.13
8,FQQTISCPEGLRLVGSEVGDRTLPGW [IRF3],0.02
9,EKNLPKMAEALAHGADVNWANSEENK [ACAP2],0.01
10,YNLKSPAVKRLMKEAAELKDPTDHYH [UBE2J1],0.08
11,ASGNKEMIEALKQYAMDYSNKALEKG [IFIT3],0.04

# Molecular target: Bcl-xL, Q07817
# Experiment: as above
# Chain of Bcl-xL, Q07817 (Q07817 1-209): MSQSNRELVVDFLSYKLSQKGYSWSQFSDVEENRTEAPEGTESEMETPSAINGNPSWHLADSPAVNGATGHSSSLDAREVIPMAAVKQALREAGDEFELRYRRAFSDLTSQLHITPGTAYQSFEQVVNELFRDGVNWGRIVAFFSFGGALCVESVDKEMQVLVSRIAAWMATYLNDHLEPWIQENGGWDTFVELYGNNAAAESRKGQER
row,Binder,SPOT signal as a fraction of Bim BH3's signal on the same receptor and array
1,ASEASLFEEALEKYGKDFNDIRQDFL [MTA3],0.02
2,FDHMVPLVEEINRLADELNPLNASQE [C7orf26],0.02
3,DFMGRTFAKPLVKMADEAYCPPRFPP [OTOF],0.26
4,CQGDTVISECLQRFADSLQEVVNYHM [ACAP3],0.02
5,EQKLKQHVENLNQVAEKLEEKHSQIT [CCDC68],0.03
6,SSTMGQVGRQLAIIGDDINRRYDSEF [BAK1],0.4
7,RAGELDRARELMRIGKRFGAVLEALE [CC2D1B],0.16
8,FQQTISCPEGLRLVGSEVGDRTLPGW [IRF3],0.03
9,EKNLPKMAEALAHGADVNWANSEENK [ACAP2],0.02
10,YNLKSPAVKRLMKEAAELKDPTDHYH [UBE2J1],0.19
11,ASGNKEMIEALKQYAMDYSNKALEKG [IFIT3],0.06

# Molecular target: T3, Mcl-1, Q07820
# Experiment: as above
row,Binder,SPOT signal as a fraction of Bim BH3's signal on the same receptor and array
1,ASEASLFEEALEKYGKDFNDIRQDFL [MTA3],0.02
2,FDHMVPLVEEINRLADELNPLNASQE [C7orf26],0.02
3,DFMGRTFAKPLVKMADEAYCPPRFPP [OTOF],0.1
4,CQGDTVISECLQRFADSLQEVVNYHM [ACAP3],0.02
5,EQKLKQHVENLNQVAEKLEEKHSQIT [CCDC68],0.02
6,SSTMGQVGRQLAIIGDDINRRYDSEF [BAK1],0.84
7,RAGELDRARELMRIGKRFGAVLEALE [CC2D1B],0.06
8,FQQTISCPEGLRLVGSEVGDRTLPGW [IRF3],0.02
9,EKNLPKMAEALAHGADVNWANSEENK [ACAP2],0.02
10,YNLKSPAVKRLMKEAAELKDPTDHYH [UBE2J1],0.05
11,ASGNKEMIEALKQYAMDYSNKALEKG [IFIT3],0.03

# Molecular target: Bcl-2, P10415
# Experiment: as above
# Chain of Bcl-2, P10415 (P10415 1-217): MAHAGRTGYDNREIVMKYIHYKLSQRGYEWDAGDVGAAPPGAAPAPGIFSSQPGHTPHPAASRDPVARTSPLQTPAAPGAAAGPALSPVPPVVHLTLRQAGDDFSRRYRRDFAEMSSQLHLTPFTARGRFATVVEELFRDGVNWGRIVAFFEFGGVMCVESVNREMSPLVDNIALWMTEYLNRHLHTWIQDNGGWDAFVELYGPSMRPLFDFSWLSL
row,Binder,SPOT signal as a fraction of Bim BH3's signal on the same receptor and array
1,ASEASLFEEALEKYGKDFNDIRQDFL [MTA3],0.01
2,FDHMVPLVEEINRLADELNPLNASQE [C7orf26],0.01
3,DFMGRTFAKPLVKMADEAYCPPRFPP [OTOF],0.06
4,CQGDTVISECLQRFADSLQEVVNYHM [ACAP3],0.01
5,EQKLKQHVENLNQVAEKLEEKHSQIT [CCDC68],0.01
6,SSTMGQVGRQLAIIGDDINRRYDSEF [BAK1],0.27
7,RAGELDRARELMRIGKRFGAVLEALE [CC2D1B],0.03
8,FQQTISCPEGLRLVGSEVGDRTLPGW [IRF3],0.01
9,EKNLPKMAEALAHGADVNWANSEENK [ACAP2],0.01
10,YNLKSPAVKRLMKEAAELKDPTDHYH [UBE2J1],0.03
11,ASGNKEMIEALKQYAMDYSNKALEKG [IFIT3],0.01
